In patent publication US20260207798A1, “CYCLIC PEPTIDES AS PET IMAGING AGENTS OF GRANZYME B” (priority 2022, published 2026):
Bridge positions count the residues as written; N and C are the ends.

Molecular target: T1, human Granzyme B (human, UniProt P10144 21-247)
T1 construct: Captured on a Series S Streptavidin chip for SPR; also called hGranzyme B; GzmB
Assay: SPR, Biacore 8k+, hGranzyme B captured on SA chip, single cycle kinetics, 1:1 model
Method: The kinetics of test peptide binding to human Granzyme B (hGranzyme B) was determined by SPR. All experiments were performed at 25° C. using the Biacore 8k+ instrument (Cytiva, Marlborough, MA). The Biacore 8k+ Insight Evaluation Software Version 3.0 was used to fit the data with a 1:1 binding model to determine the association rate constant kₐ (M⁻¹s⁻¹, where “M” ~equals molar and “s” ~equals seconds) and the dissociation rate constant kd (s⁻¹). These rate constants were used to calculate the equilibrium dissociation constant. KD (M)=kd/kₐ.
To measure the binding kinetics of peptides of interest, surfaces were prepared by a capture method to a Series S Streptavidin (SA) chip using a 1×HBS-EP+ running buffer (Cytiva). hGranzyme B was diluted to 10 μg/mL in IX HBS-EP+ and flowed over spot 2 of each flow cell on the chip at a flow rate of 10 ul/min for 20 s to achieve a level of capture of ~1100 RU. An unmodified spot 1 of each flow cell was used as a matrix binding control or reference surface. Binding kinetics were measured using single cycle kinetics at 25° C. by injecting 5 concentrations with 3-fold serial dilutions of test peptides from 0.01 μM to 1 μM. Compound dilutions were performed manually in a running buffer containing 1×HBS-EP+(Cytiva), and a final concentration of 2% DMSO. The interaction analyses over hGranzyme B, were performed using a 120 s association time and a 900 s dissociation time. All experiments were conducted at a flow rate of 50 μL/min with a data collection rate of 10 Hz.
Peptide dilution series included 2 zero concentration points (no compound) which were averaged and subtracted from the peptide concentration injection as DMSO control responses. Binding data acquired from the reference surface (matrix binding control) were subtracted from the binding data for hGranzyme B surface on the chip to determine specific binding. Next, the association phase data were solvent corrected to account for any signal fluctuation throughout the experiment due to subtle DMSO concentration differences. Corrected response data were analyzed using the Biacore 8k+ Evaluation Software Version 3.0 according to the manufacturer. SPR data for representative compounds of the disclosure are found in Table 8.

T1 sequence (P10144 21-247 limits assumed): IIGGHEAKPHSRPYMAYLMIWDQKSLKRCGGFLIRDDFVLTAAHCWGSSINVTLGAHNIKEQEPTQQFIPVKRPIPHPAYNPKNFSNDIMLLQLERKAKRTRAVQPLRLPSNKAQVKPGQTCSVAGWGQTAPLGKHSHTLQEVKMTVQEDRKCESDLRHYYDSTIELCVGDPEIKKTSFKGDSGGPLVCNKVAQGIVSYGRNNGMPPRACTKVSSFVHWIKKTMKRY

Binder | Kd
{CH2CO}-FNFEDQSVDTWQPCG-NH2 (thioether N-14; SMILES CC(C)[C@@H]1NC(=O)[C@H](CO)NC(=O)[C@H](CCC(N)=O)NC(=O)[C@H](CC(=O)O)NC(=O)[C@H](CCC(=O)O)NC(=O)[C@H](Cc2ccccc2)NC(=O)[C@H](CC(N)=O)NC(=O)[C@H](Cc2ccccc2)NC(=O)CSC[C@@H](C(=O)NCC(N)=O)NC(=O)[C@@H]2CCCN2C(=O)[C@H](CCC(N)=O)NC(=O)[C@H](Cc2c[nH]c3ccccc23)NC(=O)[C@H]([C@@H](C)O)NC(=O)[C@H](CC(=O)O)NC1=O) [Compound 24a] | 28.8 nM
{CH2CO}-FNFEDQAADTWQPCG-NH2 (thioether N-14; SMILES C[C@@H]1NC(=O)[C@H](C)NC(=O)[C@H](CCC(N)=O)NC(=O)[C@H](CC(=O)O)NC(=O)[C@H](CCC(=O)O)NC(=O)[C@H](Cc2ccccc2)NC(=O)[C@H](CC(N)=O)NC(=O)[C@H](Cc2ccccc2)NC(=O)CSC[C@@H](C(=O)NCC(N)=O)NC(=O)[C@@H]2CCCN2C(=O)[C@H](CCC(N)=O)NC(=O)[C@H](Cc2c[nH]c3ccccc23)NC(=O)[C@H]([C@@H](C)O)NC(=O)[C@H](CC(=O)O)NC1=O) [Compound 27a] | 10.9 nM
{CH2CO}-FNFEDQSARTWQPCG-NH2 (thioether N-14; SMILES C[C@@H]1NC(=O)[C@H](CO)NC(=O)[C@H](CCC(N)=O)NC(=O)[C@H](CC(=O)O)NC(=O)[C@H](CCC(=O)O)NC(=O)[C@H](Cc2ccccc2)NC(=O)[C@H](CC(N)=O)NC(=O)[C@H](Cc2ccccc2)NC(=O)CSC[C@@H](C(=O)NCC(N)=O)NC(=O)[C@@H]2CCCN2C(=O)[C@H](CCC(N)=O)NC(=O)[C@H](Cc2c[nH]c3ccccc23)NC(=O)[C@H]([C@@H](C)O)NC(=O)[C@H](CCCNC(=N)N)NC1=O) [Compound 28a] | 18 nM
{CH2CO}-FNFEDQNADTWQPCG-NH2 (thioether N-14; SMILES C[C@@H]1NC(=O)[C@H](CC(N)=O)NC(=O)[C@H](CCC(N)=O)NC(=O)[C@H](CC(=O)O)NC(=O)[C@H](CCC(=O)O)NC(=O)[C@H](Cc2ccccc2)NC(=O)[C@H](CC(N)=O)NC(=O)[C@H](Cc2ccccc2)NC(=O)CSC[C@@H](C(=O)NCC(N)=O)NC(=O)[C@@H]2CCCN2C(=O)[C@H](CCC(N)=O)NC(=O)[C@H](Cc2c[nH]c3ccccc23)NC(=O)[C@H]([C@@H](C)O)NC(=O)[C@H](CC(=O)O)NC1=O) [Compound 29a] | 31.4 nM
{CH2CO}-FNFEDQGADTWQPCG-NH2 (thioether N-14; SMILES C[C@@H]1NC(=O)CNC(=O)[C@H](CCC(N)=O)NC(=O)[C@H](CC(=O)O)NC(=O)[C@H](CCC(=O)O)NC(=O)[C@H](Cc2ccccc2)NC(=O)[C@H](CC(N)=O)NC(=O)[C@H](Cc2ccccc2)NC(=O)CSC[C@@H](C(=O)NCC(N)=O)NC(=O)[C@@H]2CCCN2C(=O)[C@H](CCC(N)=O)NC(=O)[C@H](Cc2c[nH]c3ccccc23)NC(=O)[C@H]([C@@H](C)O)NC(=O)[C@H](CC(=O)O)NC1=O) [Compound 30a] | 25.9 nM
{CH2CO}-FNFEDQSWDTWQPCG-NH2 (thioether N-14; SMILES C[C@@H](O)[C@@H]1NC(=O)[C@H](CC(=O)O)NC(=O)[C@H](Cc2c[nH]c3ccccc23)NC(=O)[C@H](CO)NC(=O)[C@H](CCC(N)=O)NC(=O)[C@H](CC(=O)O)NC(=O)[C@H](CCC(=O)O)NC(=O)[C@H](Cc2ccccc2)NC(=O)[C@H](CC(N)=O)NC(=O)[C@H](Cc2ccccc2)NC(=O)CSC[C@@H](C(=O)NCC(N)=O)NC(=O)[C@@H]2CCCN2C(=O)[C@H](CCC(N)=O)NC(=O)[C@H](Cc2c[nH]c3ccccc23)NC1=O) [Compound 31a] | 23.3 nM
{CH2CO}-FNFEDQSRDTWQPCG-NH2 (thioether N-14; SMILES C[C@@H](O)[C@@H]1NC(=O)[C@H](CC(=O)O)NC(=O)[C@H](CCCNC(=N)N)NC(=O)[C@H](CO)NC(=O)[C@H](CCC(N)=O)NC(=O)[C@H](CC(=O)O)NC(=O)[C@H](CCC(=O)O)NC(=O)[C@H](Cc2ccccc2)NC(=O)[C@H](CC(N)=O)NC(=O)[C@H](Cc2ccccc2)NC(=O)CSC[C@@H](C(=O)NCC(N)=O)NC(=O)[C@@H]2CCCN2C(=O)[C@H](CCC(N)=O)NC(=O)[C@H](Cc2c[nH]c3ccccc23)NC1=O) [Compound 32a] | 30.3 nM
{CH2CO}-FNFEDQSKDTWQPCG-NH2 (thioether N-14; SMILES C[C@@H](O)[C@@H]1NC(=O)[C@H](CC(=O)O)NC(=O)[C@H](CCCCN)NC(=O)[C@H](CO)NC(=O)[C@H](CCC(N)=O)NC(=O)[C@H](CC(=O)O)NC(=O)[C@H](CCC(=O)O)NC(=O)[C@H](Cc2ccccc2)NC(=O)[C@H](CC(N)=O)NC(=O)[C@H](Cc2ccccc2)NC(=O)CSC[C@@H](C(=O)NCC(N)=O)NC(=O)[C@@H]2CCCN2C(=O)[C@H](CCC(N)=O)NC(=O)[C@H](Cc2c[nH]c3ccccc23)NC1=O) [Compound 33a] | 33.9 nM
{CH2CO}-FNFEDQSAKTWQPCG-NH2 (thioether N-14; SMILES C[C@@H]1NC(=O)[C@H](CO)NC(=O)[C@H](CCC(N)=O)NC(=O)[C@H](CC(=O)O)NC(=O)[C@H](CCC(=O)O)NC(=O)[C@H](Cc2ccccc2)NC(=O)[C@H](CC(N)=O)NC(=O)[C@H](Cc2ccccc2)NC(=O)CSC[C@@H](C(=O)NCC(N)=O)NC(=O)[C@@H]2CCCN2C(=O)[C@H](CCC(N)=O)NC(=O)[C@H](Cc2c[nH]c3ccccc23)NC(=O)[C@H]([C@@H](C)O)NC(=O)[C@H](CCCCN)NC1=O) [Compound 34a] | 29.3 nM
{CH2CO}-FNFEDQSAWTWQPCG-NH2 (thioether N-14; SMILES C[C@@H]1NC(=O)[C@H](CO)NC(=O)[C@H](CCC(N)=O)NC(=O)[C@H](CC(=O)O)NC(=O)[C@H](CCC(=O)O)NC(=O)[C@H](Cc2ccccc2)NC(=O)[C@H](CC(N)=O)NC(=O)[C@H](Cc2ccccc2)NC(=O)CSC[C@@H](C(=O)NCC(N)=O)NC(=O)[C@@H]2CCCN2C(=O)[C@H](CCC(N)=O)NC(=O)[C@H](Cc2c[nH]c3ccccc23)NC(=O)[C@H]([C@@H](C)O)NC(=O)[C@H](Cc2c[nH]c3ccccc23)NC1=O) [Compound 35a] | 24 nM
{CH2CO}-FNFEDQSAYTWQPCG-NH2 (thioether N-14; SMILES C[C@@H]1NC(=O)[C@H](CO)NC(=O)[C@H](CCC(N)=O)NC(=O)[C@H](CC(=O)O)NC(=O)[C@H](CCC(=O)O)NC(=O)[C@H](Cc2ccccc2)NC(=O)[C@H](CC(N)=O)NC(=O)[C@H](Cc2ccccc2)NC(=O)CSC[C@@H](C(=O)NCC(N)=O)NC(=O)[C@@H]2CCCN2C(=O)[C@H](CCC(N)=O)NC(=O)[C@H](Cc2c[nH]c3ccccc23)NC(=O)[C@H]([C@@H](C)O)NC(=O)[C@H](Cc2ccc(O)cc2)NC1=O) [Compound 36a] | 24.2 nM
{CH2CO}-FNFEDQSAHTWQPCG-NH2 (thioether N-14; SMILES C[C@@H]1NC(=O)[C@H](CO)NC(=O)[C@H](CCC(N)=O)NC(=O)[C@H](CC(=O)O)NC(=O)[C@H](CCC(=O)O)NC(=O)[C@H](Cc2ccccc2)NC(=O)[C@H](CC(N)=O)NC(=O)[C@H](Cc2ccccc2)NC(=O)CSC[C@@H](C(=O)NCC(N)=O)NC(=O)[C@@H]2CCCN2C(=O)[C@H](CCC(N)=O)NC(=O)[C@H](Cc2c[nH]c3ccccc23)NC(=O)[C@H]([C@@H](C)O)NC(=O)[C@H](Cc2c[nH]cn2)NC1=O) [Compound 37a] | 19.1 nM
{CH2CO}-YNFEDQSPDTWQPCG-NH2 (thioether N-14; SMILES C[C@@H](O)[C@@H]1NC(=O)[C@H](CC(=O)O)NC(=O)[C@@H]2CCCN2C(=O)[C@H](CO)NC(=O)[C@H](CCC(N)=O)NC(=O)[C@H](CC(=O)O)NC(=O)[C@H](CCC(=O)O)NC(=O)[C@H](Cc2ccccc2)NC(=O)[C@H](CC(N)=O)NC(=O)[C@H](Cc2ccc(O)cc2)NC(=O)CSC[C@@H](C(=O)NCC(N)=O)NC(=O)[C@@H]2CCCN2C(=O)[C@H](CCC(N)=O)NC(=O)[C@H](Cc2c[nH]c3ccccc23)NC1=O) [Compound 39a] | 1.1 nM
